According to patent US20210130420A1, “RECOMBINANT BINDING PROTEINS TARGETING HER2 AND SERUM ALBUMIN, AND THEIR USES” (Molecular Partners AG, priority 2016, published 2021):
Numbering of substitutions follows the chain as printed. Entries after “also recorded” stand apart in the source; their conditions may differ.

B1: Protein #21-His: SEQ ID NO: 21 with a His-tag (SEQ ID NO: 1) fused to its N terminus (protein)
chain: MRGSHHHHHHGSDLGKKLLEAARAGQDDEVRELLKAGADVNAKDYFSHTPLHLAARNGHLKIVEVLLKAGADVNAKDFAGKTPLHLAANEGHLEIVEVLLKAGADVNAQDIFGKTPADIAADAGHEDIAEVLQKAAGSPTPTPTTPTPTPTTPTPTPTGSDLGIKLLFAAAKGQDDEVRELLKAGADVNAKDFQGVTPLHIAAQSGHLEIVEVLLKAGADVNAKDVTGDTPLHLAAQHGHLEIVEVLLKAGADVNAQDERGWTPADLAADWGHEDIAEVLQKAAGSPTPTPTTPTPTPTTPTPTPTGSDLGKKLLEAARAGQDDEVRELLKAGADVNAKDEYGLTPLYLATAHGHLEIVEVLLKAGADVNAVDAIGFTPLHLAAFIGHLEIAEVLLKAGADVNAQDKFGKTPADIAAGAGNEDIAEVLQKAAGSPTPTPTTPTPTPTTPTPTPTGSDLGKKLLEAARAGQDDEVRELLKAGADVNAKDYFSHTPLHLAARNGHLKIVEVLLKAGADVNAKDFAGKTPLHLAANEGHLEIVEVLLKAGADVNAQDIFGKTPADIAADAGHEDIAEVLQKAA
modifications: Protein comprising four designed ankyrin repeat domains
B2: Protein #14-His: SEQ ID NO: 14 with a His-tag; stability-improved serum albumin binding designed ankyrin repeat domain, aspartate 80 of SEQ ID NO: 13 mutated to glutamate (protein)
chain: GSDLGKKLLEAARAGQDDEVRELLKAGADVNAKDYFSHTPLHLAARNGHLKIVEVLLKAGADVNAKDFAGKTPLHLAANEGHLEIVEVLLKAGADVNAQDIFGKTPADIAADAGHEDIAEVLQKAA
modifications: His-tag; Designed ankyrin repeat domain
B3: Protein #13-His: SEQ ID NO: 13 with a His-tag; designed ankyrin repeat domain with binding specificity for serum albumin (WO2012/069654) (protein)
chain: B2 chain with E80D
modifications: His-tag; Designed ankyrin repeat domain

Assays:
[1] = test system: BT474 human breast carcinoma cells; test: BT474 breast cancer tumor xenograft mouse model; type: in vivo
Method: Protein #21-His, Protein #23-His, Protein #24-His, Protein #25-His were expressed and purified as described in Example 1. […] BT474 breast cancer tumor xenograft mouse models were essentially performed as follows using procedures well known to the person skilled in the art: BT474 human breast carcinoma cells were cultured, resuspended, and 2*10^7 cells in 200 μl RPMI 1640 medium containing 50:50 matrigel (BD Biosciences) per mouse were injected into the right flank of female Balb/c nude mice. […] Tumor volumes were measured for 32 days.
In a similar study using BT474 cells (identical setup and procedure; all 35 mg/kg doses), Protein #21-His was compared to Protein #23-His, Protein #24-His, and Protein #25-His.

[2] = Pharmacokinetic analysis in mouse; type: in vivo
Method: The measurements shown in this example are the result of a half-life engineering effort as described in Example 11. Protein #21-His and Protein #23-His were expressed and purified as described in Example 1. The pharmacokinetic properties of the His-tagged proteins were assessed in mouse as described elsewhere (Zahnd, C., Kawe, M., Stumpp, M. T., de Pasquale, C., Tamaskovic, R., Nagy-Davidescu, G., Dreier, B., Schibli, R., Binz, H. K., Waibel, R., Plückthun, A., Cancer Res. 70, 1595-1605, 2010). […] Having SEQ ID NO: 16 present in the recombinant binding protein thus appears to be more favorable than having SEQ ID NO: 18 present.
Polypeptide linkers that link protein domains are well-known to the person skilled in the art. Gly-Ser-rich linkers are well-known from single-chain Fv antibody fragments, where they have proven to be most appropriate to link the two Fv polypeptide chains. […] Protein #26-His and Protein #27-His, were expressed and purified as described in Example 1. Pharmacokinetic analyses in mouse were performed as described in Example 8.
(§1) For the studies in this example Protein #21-His, Protein #24-His, Protein #28-His, Protein #29-His, and Protein #30-His were prepared according to Example 1. Protein #28-His was additionally PEGylated using a 40 kDa PEG moiety (NOF Sunbright GL2-400MA) by maleimid coupling of the PEG-moiety onto the free C-terminal cysteine of Protein #28-His, followed by purification to homogeneity using standard purification methods, procedures well known to the person skilled in the art. Pharmacokinetic analyses in mouse or cynomolgus monkey were performed as described in Examples 8 and 9.

[3] = Pharmacokinetic analysis in cynomolgus monkey; type: in vivo
Method: The measurements shown in this example are the result of a half-life engineering effort as described in Example 11. Protein #21-His, Protein #23-His, and Protein #24-His were expressed and purified as described in Example 1. The pharmacokinetic properties of the proteins were assessed in cynomolgus monkey. Proteins were administered via intravenous infusion for 30 min at a target dose level of between 1 mg/kg to cynomolgus monkeys. Blood samples were collected pre-dose and again at selected time points, for example 5 min, 10 min, 0.5 hours, 1 hour, 2 hours, 4 hours, 8 hours, 12 hours, 24 hours, 48 hours, 72 hours, 96 hours, 120 hours, 144 hours, 168 hours, 192 hours, 216 hours, and 240 hours post-end of infusion (i.e. post-injection). The blood samples were allowed to stand at room temperature and were centrifuged to generate serum, followed by storage at −80° C. pending analyses. Pharmacokinetic parameters were determined using procedures well known to the person skilled in the art. Serum concentrations of proteins were determined by sandwich ELISA using a rabbit monoclonal anti-designed ankyrin repeat domain antibody as capture reagent and murine monoclonal anti-designed ankyrin repeat domain antibody as detection reagent, and using a standard curve. Pharmacokinetic parameters were determined using standard software such as Phoenix WinNonLin (Certara, Princeton, USA) or Graph Pad Prism (GraphPad Software, La Jolla, USA) and standard analyses such as non-compartmental analyses. […] Target mediated clearance is well-known to the person skilled in the art and is known from e.g. antibodies targeting HER2.
Similarly, Protein #21-His was expressed and purified as described in Example 1. The pharmacokinetic properties of the proteins were assessed in cynomolgus monkey as described above at 1 mg/kg, 5 mg/kg and 10 mg/kg.
Similar results are observed when testing Protein #21 (expressed and purified as described in Example 1). The pharmacokinetic properties of the proteins are assessed in cynomolgus monkey as described above at 1 mg/kg, 10 mg/kg and 100 mg/kg. Pharmacokinetic parameters are evaluated as described above.
as §1

[4] = Thermal unfolding, midpoint of thermal denaturation; type: physicochemical; conditions: pH 6.0
Text: Degradation may for example occur in the vicinity of any one of the 5 asparagines (including asparagine-glycine dipeptides), 13 aspartates, or 10 glycines of SEQ ID NO: 13, amongst additional potential degradation sites. SEQ ID NO: 13 further comprises a number of potential oxidation sites. […] When mutating aspartate at position 80 of SEQ ID NO: 13 to glutamate, a functional designed ankyrin repeat domain with binding specificity for serum albumin was generated, corresponding to SEQ ID NO: 14, which does show a marked improvement in storage stability (Example 3; FIGS. 2A and 2B).

[5] = Storage stability in PBS analysed by SDS-PAGE; type: physicochemical
Method: “Improved storage stability” in the context of the present invention means the reduction of the amounts of a degradation band, preferably the reduction of the amount of degradation products, as detected by a Coomassie-stained SDS-PAGE occurring after storage at 40° C. for 1 month at 10 mg/ml in PBS, by at least 5%, 10%, 15%, 20%, 25%, 30%, 35%, 40%, 45%, 50%, or 50%. Methods to assess storage stability by SDS-PAGE are well known to the person skilled in the art. Examples of designed ankyrin repeat domains and recombinant binding proteins with improved storage stability properties are given in Examples 2 and 3.
Protein #13-His, Protein #14-His and Protein #15-His were prepared as described in Example 1, and samples were concentrated to 10 mg/ml in PBS. Protein #14-His and Protein #15-His where then stored for 1 month at −80° C. or at 40° C. in glass vials, followed by analysis on SDS 15% PAGE. […] These findings illustrate that Protein #14-His has improved storage stability compared to Proteins #13-His and Protein #15-His.
A storage stability improvement is also observed, when testing the storage stability of Protein #21 and Protein #22 (recombinant binding proteins consisting of the amino acid sequences corresponding to SEQ ID NOs: 21 and 22, respectively). Protein #21 and Protein #22 are prepared as described in Example 1, samples are concentrated to 10 mg/ml in PBS and stored for 1 month at −80° C. in or at 40° C. in glass vials, followed by analysis on standard size-exclusion chromatography.

| Molecule | inhibition of tumor growth ([1]; Protein #21-His 35 mg/kg, Trastuzumab 10 mg/kg, i.v. Q3Dx7, tumor volumes measured for 32 days, FIG. 4A) | tumor suppression compared to Protein #24-His ([1]; after 32 days of treatment, FIG. 4B) | tumor suppression compared to other recombinant binding proteins ([1]; all 35 mg/kg doses, day 18 of treatment, FIG. 4B) | % ID remaining after 48 hours [2] [% ID] | terminal half-life [2] [h] | concentration below which target-mediated clearance is observed [3] | terminal half-life ([3]; 1 mg/kg, intravenous infusion) [h] | midpoint of thermal denaturation Tm [4] [°C] | stability upon storage at −80° C. ([5]; 10 mg/ml in PBS, 1 month at −80° C., SDS 15% PAGE) | reduction of degradation products compared to Protein #15-His ([5]; 10 mg/ml in PBS, glass vials, 1 month at 40° C., SDS 15% PAGE) [%] | reduction of degradation products compared to Protein #13-His ([5]; 10 mg/ml in PBS, one week at 40° C., SDS 15% PAGE) [%] | reduction of degradation products compared to Protein #13-His ([5]; 10 mg/ml in PBS, one week at 60° C., SDS 15% PAGE) [%] | degradation upon prolonged incubation ([5]; in PBS at 10 mg/ml at 40° C.) |
| --- | --- | --- | --- | --- | --- | --- | --- | --- | --- | --- | --- | --- | --- |
| B1 | more efficacious in inhibiting tumor growth than Trastuzumab | significantly better tumor suppression than Protein #24-His | more efficacious in suppressing tumors than Protein #23-His, Protein #24-His, or Protein #25-His; also recorded: significantly more efficacious in inhibiting tumor growth than Protein #24-His | 19.5 | 30.4 | below 100 nM | 47 | – | – | – | – | – | – |
| B2 | – | – | – | – | – | – | – | 89.5 | equivalent stability | > 50 | > 50 | > 50 | – |
| B3 | – | – | – | – | – | – | – | 86 | – | – | – | – | degrade |
